Assay results from US7226603.

Target: T1, HBV core antigen (hepatitis B virus), P03146
T1 chain: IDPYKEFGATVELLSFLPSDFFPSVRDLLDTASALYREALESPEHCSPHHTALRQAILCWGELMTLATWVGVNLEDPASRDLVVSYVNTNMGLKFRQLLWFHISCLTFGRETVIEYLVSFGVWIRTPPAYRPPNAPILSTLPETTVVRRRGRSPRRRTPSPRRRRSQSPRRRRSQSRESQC
Assay: relative dissociation constant (KD^Rel), fd fusion phage with HBV core antigen in solution

First: ADGAHRSLLGRMKGA (modifications not checked) [fd fusion phage carrying … (SEQ ID NO: 24)]
Second: ADGSRSSLLGRMKGA (modifications not checked) [fd fusion phage carrying … (SEQ ID NO: 20)]
The Kd of the first is 2.1-fold lower: 0.94 nM for the first, 1.96 nM for the second. The first binds more tightly here.

Going from ADGYQRSLLGRMKGA (modifications not checked) [fd fusion phage carrying … (SEQ ID NO: 25)] to ADGSLLGRMKPA (modifications not checked) [fd fusion phage carrying … (SEQ ID NO: 15)], the Kd rises from 0.88 nM to 322 nM (370-fold). The first binds more tightly here.

Compared with ADGALLGRMKPA (modifications not checked) [fd fusion phage carrying … (SEQ ID NO: 14)], ADGTQRSLLGRMKGA (modifications not checked) [fd fusion phage carrying … (SEQ ID NO: 26)] is 910-fold lower in Kd: 767 nM for the first, 0.84 nM for the second.

Going from ADGPRSSLLGRMKGA (modifications not checked) [fd fusion phage carrying … (SEQ ID NO: 23)] to ADGTLLGRMKLA (modifications not checked) [fd fusion phage carrying … (SEQ ID NO: 17)], the Kd rises from 0.84 nM to 20 nM (24-fold). The first binds more tightly here.

Going from ADRSLLGRMKGA (modifications not checked) [fd fusion phage carrying … (SEQ ID NO: 19)] to ADGALLGRMKRA (modifications not checked) [fd fusion phage carrying … (SEQ ID NO: 16)], the Kd rises from 1.09 nM to 181 nM (170-fold). The first binds more tightly here.

ADGHRSSLLGRMKGA (modifications not checked) [fd fusion phage carrying … (SEQ ID NO: 22)] was tested, and the Kd was 1.4 nM.

Target: T2, C-terminally truncated HBV core antigen (aa3-148) (hepatitis B virus), P03146
T2 chain: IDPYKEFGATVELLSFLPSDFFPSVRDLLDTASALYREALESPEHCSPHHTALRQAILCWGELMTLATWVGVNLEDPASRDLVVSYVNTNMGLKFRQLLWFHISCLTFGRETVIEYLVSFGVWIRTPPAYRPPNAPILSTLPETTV
Assay: EDC/sulpho-NHS crosslinking, SDS-PAGE band shift

MHRSLLGRMKGA (modifications not checked) [peptide … (SEQ ID NO: 40)] was tested, and the yield of the shifted (crosslinked) protein band was less than 50%.
